Data on two molecules can be found in patent publication US20250304718A1, “HER2 SINGLE DOMAIN ANTIBODY AND USES THEREOF” (Institut Curie, priority 2024, published 2025).

For assay [1], the target named is T1, Her2 recombinant ectodomain fused to a Rabbit Fc domain (human; rabbit, UniProt P04626 23-652).
T1 construct: also called Her2 ectodomain-Rabbit Fc; not shown: Rabbit Fc domain
Put plainly: ELISA on recombinant Her2 ectodomain-Rabbit Fc.

In assay [2] the target is T2, HER2 (Receptor tyrosine-protein kinase erbB-2) on the surface of SKBR3 cells (human, UniProt P04626 23-1255).
T2 construct: Endogenous HER2 overexpressed on the SKBR3 breast tumor cell line; also called CD340
Put plainly: flow cytometry (FACS) on SKBR3 cells overexpressing HER2; MCF10A HER2-negative cells as control. The protocol:
(§1) From inventors humanized sdAb libraries, a phage display subtraction selection system was developed to identify sdAbs that selectively detect the surface of breast tumor cells. The SKBR3 target cell line was used because it overexpresses the HER2 protein on its surface, while the MCF10A cell line, derived from non-cancerous and HER2-negative mammary gland cells, was used to pre-adsorb the libraries. After 3 successive cycles of selection on these cell lines, sdAb clones were analyzed by flow cytometry (FACS) for their binding capacity on SKBR3 cells and MCF10A cells.
For orientation: Flow cytometry measures light scatter and fluorescence of single cells or particles in a stream.

A further assay deals with MCF10A cells. Put plainly: FACS binding of sdAb on MCF10A cells. Conditions: MCF10A non-cancerous, HER2-negative; data not shown. The procedure:
as §1
(§2) A human VH anti-HER2 was selected for further experiments.

The next assay deals with SKBR3 cells. Put plainly: FACS binding of sdAb on SKBR3 cells. Conditions: SKBR3 overexpresses HER2 on its surface; data not shown. The protocol: as §1, §2
Assay [3] has as its target T3, Her2 recombinant ectodomain fused to a Rabbit Fc domain (Homo sapiens, UniProt P04626).
T3 construct: validated by ELISA on Her2 recombinant ectodomain fused to a Rabbit Fc domain; Rabbit Fc domain
Put plainly: ELISA on Her2 recombinant ectodomain. The class given is binding. Conditions: data not shown. The text has this:
The anti-HER2 sdAb was afterward validated by ELISA on Her2 recombinant ectodomain fused to a Rabbit Fc domain (data not shown).
On the technique in general: ELISA stands for enzyme-linked immunosorbent assay.

For assay [4], the system named is Jurkat-derived clone bearing a NFAT-YFP gene reporter. As to the kind of experiment: Reporter cell system for CAR-T cell activity (FACS). Conditions: sdAb in second generation CAR (CD8 TM, 4-1BB, CD3z). Format: cell-based. The text has this:
The anti-HER2 sdAb of the invention was also validated for use in CAR-T format. The model of CAR chosen is the one used to treat diffuse lymphomas (Linguanti F, Abenavoli E M, Berti V, Lopci E. Metabolic Imaging in B-Cell Lymphomas during CAR-T Cell Therapy. Cancers (Basel). 2022 Sep. 27; 14(19):4700. doi: 10.3390/cancers14194700. PMID: 36230629; PMCID: PMC9562671). This anti-lymphoma CAR-T therapy called “second generation” comprises the transmembrane domain of CD8, a costimulation domain from 4-1BB and the CD3z signaling domain. In the case of Kymriah® targeting B lymphocytes, the binding module is an anti-CD19 scFv. In the construction of the invention, the anti-CD19 scFv was replaced by the anti-Her2 sdAb of the invention.
The inventors developed a reporter cell system allowing to identify CAR-T cell activity. It is based on a Jurkat-derived clone bearing a NFAT-YFP gene reporter activated by TCR clustering (Blanchard N. et al, The Journal of Immunology, 2004).

B1: humanized anti-HER2 single domain antibody (sdAb) of the invention (VHH)
VHH: EVQLVESGGGLVQPGGSLRLSCAASGAFYKAYNMGWVRQAPGKGLEWVSAISATQGKWVYYADSVKGRFTISRDNSKNTVYLQMNSLRAEDTAVYYCAKLPISKKALYRGQGTLVTVSS
notes: Synthetic humanized/human VH single domain antibody (not a camelid VHH), selected by phage display on SKBR3 cells; also called VH anti-Her2; human VH anti-HER2
On to B1, for which the binding result in assay [1] and in assay [2] was “binds” in each case.

B2: anti-HER2 sdAb: fully humanized anti-HER2 VH single domain antibody, SEQ ID NO:2, CDRs SEQ ID NO:7-9 (protein)
VHH: MAEVQLVESGGGLVQPGGSLRLSCAASGAFYKAYNMGWVRQAPGKGLEWVSAISATQGKWVYYADSVKGRFTISRDNSKNTVYLQMNSLRAEDTAVYYCAKLPISKKALYRGQGTLVTVSS
Turning to B2, in the assay with MCF10A cells, the “recognition on MCF10A cells in FACS” value was “not on MCF10A cells”. In addition, the “recognition on SKBR3 cells in FACS” value in the assay with SKBR3 cells was “specific recognition”. Further, in assay [3], the “validation by ELISA” value is “validated”. The “activation detected by FACS” value in assay [4] is listed as “specific activation”.
